According to the nanobody polyreactivity screen of Harvey et al. (2022):

assay: yeast display, Sf9 membrane polyspecificity reagent, FACS + sequencing; frameworks hold sequencing errors
In short: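 Nanobodies came from a synthetic yeast display library in Saccharomyces cerevisiae BJ5465, induced with galactose for 36–48 hours and stained for 1 hour at 4 °C with 10% biotinylated, detergent-solubilized Sf9 membrane reagent. Cells were enriched on streptavidin microbeads and then FACS-sorted, with low and high (top ~1%) gates set on anti-HA fluorescence for expression and streptavidin fluorescence for reagent binding. Each polyreactivity label reflects the gate a clone came from. Genes were amplified by colony PCR, sequenced by MiSeq 2 × 250 and filtered by CDR length.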

Row | Sequence | polyreactivity (PSR sort gate)
1 | QVQLVESGGGLVQAGGSLRISCDASGSTFSRYTLGWYRQAPVKEREMVAAISYRGGSTYYADSVKGRFTISRDNAKNTVYLQMNSLKPEDSAVYYCNADVPRIPYPDMEYWGQGTQVTVSS | low polyreactivity
2 | QVQLVESGGGLVQAGGSLRITCAASGSILFAKSMGWYRQAPGKERELVADIRGSGSTYYADSVKGRFTISRDNAKNTVYLQMNSLKPEDTAVYYCAKRHLISIPDYGRHEYYYWGQGTQVTVSS | low polyreactivity
3 | QVQLVESGGGLVQAGGSLRKSCAASGRIFGINAMGWSRQAPGNERELVAAITWGVGSTYYADSVKGRFTISRDNAKNTVYLQMNSLKPEDTAVYYCAKRRYYGYGGDYWGQGTQVTVSS | high polyreactivity
4 | QVQLVESGGGLVQAGGSLRKSCAASGRIFSANAIGWYRKAPGTEWELVAAITCSGGSTYYADSVKGRFTISRDTAKNTVYLQMHSLKPEETAVYYCAAESAAYGGGTSDAGYESDYWGQGTQVTVSS | low polyreactivity
5 | QVQLVESGGGLVQAGGSLRLAVLPPDLPSTLNDRGWYRQAPGKESELVAAITSGGNTYYADSVKGRFTISRDNAKNTVYLQMNSLKPEDTAVYYCAATYYWAWGGVYHSEFDYWGQGTQVTLSS | low polyreactivity
6 | QVQLVESGGGLVQAGGSLRLCCAASGIIFQRNDMGWYRQAPGKERELVANIRDGGITYADSVKGRFTISRDNAKNTVYLQMNSLKPEDTAVYYCARDDTSPGYGDQSSIAAYYYWGQGTQVTVSS | low polyreactivity
7 | QVQLVESGGGLVQAGGSLRLICAASGFIFGDYTMGWYRPAPGKEREVVAAITWYGDSTYYADSVKGRFTISRDNAKNTVYLQMNTLKTEDTAVYYCNAVNDWYYAYYGVTSFRSYDYWGQGSQVTVSS | low polyreactivity
8 | QVQLVESGGGLVQAGGSLRLICAASGFIFGGYGMGWYRQAPGKERELVAVITASGGSTYYADSVKGRFTISRDNAKNTVYLQMNSLKPEDTAVYYCAARVGRYGYSQYYYWGQGTQVTVSS | high polyreactivity
9 | QVQLVESGGGLVQAGGSLRLICAASGFIFRRYDMGWYRQAPGKERELVATITASVGSTNYADSVKGRFTISRDNAKNTVYLQMNSLKPEDTAVYYCATDIIGAIRVWDHTRMDYWGQGTQVTVSS | low polyreactivity
10 | QVQLVESGGGLVQAGGSLRLICAASGFIFSSHAMGWYRQAPGKERELVAAISRSGGRTYYADSVKGRFTITRDNAKNTVYLQMNSLKPEDTAVYYCAAKRWWQYYWGQGTQVTVSS | high polyreactivity
11 | QVQLVESGGGLVQAGGSLRLICAASGFIFTGYVMGWYRQEPGKERELVAAISSRGGSTYYADSVKGRFTISRDNAKNTVYLQMNSLKPEDTAVYYCAARYVYGSSYDYWGQGTQVTVSS | high polyreactivity
12 | QVQLVESGGGLVQAGGSLRLICAASGFIFTYYGMGWYRQAPGKERELVAAITWSGASTYYADSVKGRFTISRDNAKNTVYLQMNSLKPEDTAVYYCNAGWDSGIVQSDETVYKYDYWGQGTQVTVSS | low polyreactivity
13 | QVQLVESGGGLVQAGGSLRLICAASGFIYFFYAMGWSRQAPGKEMEFVAVITQSGGSTYYADSVKGRFTISRDNAKNTVYLQMNSLKPEDTAVYYFNADTVRYYPFFSVRYYYWGQGTQVTVSS | low polyreactivity
14 | QVQLVESGGGLVQAGGSLRLICAASGFIYHNAMGWYRQATGTERELVARITWSGGSTSYADSVKGRFTISRDNAKNTVYLQKNSLKPEDTAVYYCAARGVVYRYGASRGYWGQGTQVTVSS | high polyreactivity
15 | QVQLVESGGGLVQAGGSLRLICAASGFNFVTNAMGWYRQAPGKERELVAAISRRGGSTYYADSVKGRFTISRDIAKNTVYLQMNSLKPEDTAVLYCAAVTLSAESGYYWGHGTQVTVSS | high polyreactivity
16 | QVQLVESGGGLVQAGGSLRLICAASGFSLYRNSMGWYRQAPGTERELVAAISSSGGRTYYADSVKGRFTISRDNAKNTVYLQMNSLKPEDTAVYYCAADFYRYGPQLGYWGQGTQVTVSS | high polyreactivity
17 | QVQLVESGGGLVQAGGSLRLICAASGFTFFSYTMGWYRQAPGKERELVAAISKRGSRTYYADSVKGRFTISRDNAKNTVYLQMNSLKQEDTAVYYCAADSGPEVVHRREDYWGQGTQVTLSS | high polyreactivity
18 | QVQLVESGGGLVQAGGSLRLICAASGFTFRTYAMGWYRQAPGKERELVAAINYSGGSTYYADSVKGRFTISRDNAKNTVYLQMNSVKPEDTAVYYCNKQRDVQVYVRYPMNYWGQGTQVTVSS | low polyreactivity
19 | QVQLVESGGGLVQAGGSLRLICAASGFTFTDYAMGWYRQAPGKERELVAVIDSGGSTYYADSVKGRFTISRDNAKNTVYLQMNSLKPEDTAVYYCAAYNGTAPSEDYLGQGTQVTVSS | low polyreactivity
20 | QVQLVESGGGLVQAGGSLRLICAASGFTLDQYAMGWYRPAPGKERELVAVITSGGNTYYADSVKGRFTISRDNAKNTVYLQMNSLKPEDTAVYYCAKDVSDPFYDPFEYWGQGTQVTVSS | low polyreactivity
21 | QVQLVESGGGLVQAGGSLRLICAASGFTLDWYVMGWYRQAPGKERELVAAISSSGGRTYYADSVKGRFTISRDNEKNTVYLQMNSLKPEDPAVYYCAARNKYGGYPYGYDYWGQGTQVTVSS | high polyreactivity
22 | QVQLVESGGGLVQAGGSLRLICAASGFTLRHYAMGWSRQAPGKERELVAAITKSGSSTYYADSVKGRFTISRDNAKNTVYLQMNSLKPEDTAVYYCAKKTSYSYAFRYDYWGQGTQVTVSS | high polyreactivity

Row | Sequence | polyreactivity (PSR sort gate)
23 | QVQLVESGGGLVQAGGSLRLICAASGGIFPTYDMVWYRQAPGKERELVAAIDRNGTSTTYSDSVKGRFTISRDNAKNTVYLQMNSLKPEDTEVYYCAAGYNDQTSAYDYWGHGTQVTVSS | low polyreactivity
24 | QVQLVESGGGLVQAGGSLRLICAASGGIFWYYAMGWYRQAPGKERELVATISSGGSTKYADSVKGRFTISRDNAKNTVYLQMNSLKPEDTAVYYCNKVFPNLYIYVVRGLIEMDYWGQGTQVTVSS | low polyreactivity
25 | QVQLVESGGGLVQAGGSLRLICAASGGIIYWNAMGWYRQAPGKERELVATITRSGGSTYYADSVKGRFTISRDNAKNTVYLQMNSLKPEDTAVYYCAARSYYRFDYWGQGTQVTVSS | high polyreactivity
26 | QVQLVESGGGLVQAGGSLRLICAASGGPFGYYTMGWYRQAPGKERELVAAISSGGGTDYADSVKGRFTISRDNAKNTVYLQMNSLKPEDTAVYYCNAKWLEWHYVFLPSYTMDYWGQGTQVTVSS | low polyreactivity
27 | QVQLVESGGGLVQAGGSLRLICAASGGTFGRNAMGWYRQAPGKERELVATITRRGGSTYYADSVKGRFTISRDNAKNTVYLQMNSLKPEDTAVYYCNALVTTTPRYDYWGQGTQVTVSS | high polyreactivity
28 | QVQLVESGGGLVQAGGSLRLICAASGGTFNAYAMGWYRQAPGKERELVATISYSGGSTYYADSEKGRFTISRDNAKNTVYLQMNSLKPEDTAVYYCATDVYDSTPFRFDYWGQGTQVTVSS | low polyreactivity
29 | QVQLVESGGGLVQAGGSLRLICAASGIIFHFNDMGWYRQAPGKERELVAAIDSTGSTNYADSVKGRFTISRDNAKNTVYLQMNSLKPEDTAVYYCAVLNHRVDSVLTRYYYWGQGTQVTVSS | low polyreactivity
30 | QVQLVESGGGLVQAGGSLRLICAASGIIFRWYTMGWYRQAPGKERELVAAISTSTGSTYYADSVKGRFTISRDNAKNTVYLQMNSLKPEDTAVYYCAADYAYWNYESYYWGQGTQVTVSS | high polyreactivity
31 | QVQLVESGGGLVQAGGSLRLICAASGITFARNTRGWYRQAPGKERELVAAIDSGGNTYADSVKGRFTISRDNAKNTVYLQMNSLKPEDTAVYYCAVDGGEFSSYGYWGQGTQVTVSS | low polyreactivity
32 | QVQLVESGGGLVQAGGSLRLICAASGITFGCNAMGWYRQAPGKEREFVAAITFSDGSTRYADSVKGRFTISRDNAKNTVYLQMNSLKPEDTAVYYCAADTWSDKYDYWGQGTQVTVSS | low polyreactivity
33 | QVQLVESGGGLVQAGGSLRLICAASGITFWYYAMGWSRQEPGKERELVAAITRRGRTNYADSVKGRFTISRDNAKNTVYLQMNSLKPEVTAVYYCAVDLYSFSPRYYYWGQGTQVSVSS | low polyreactivity
34 | QVQLVESGGGLVQAGGSLRLICAASGITFYYYAMGWYRQAPGKERELVAAISTRSGSTYYADSVKGRFTISRDNAKNTVYLEMNSLKPEDTAVYYCAARYRSAGHRYDYWGQGTQVTVSS | high polyreactivity
35 | QVQLVESGGGLVQAGGSLRLICAASGITIKRSAMGWYRQPPGKEREFVATISQSGTSTYYADSVKGLFTISRDNAKNTVYLQMNSLKPEDTAVYYCAADYIGYWYGYYSWGHGTQVTVSS | low polyreactivity
36 | QVQLVESGGGLVQAGGSLRLICAASGITLYRYAMGWYRQAPGKERELVADISSGGGTTYYADSVKGRFTISRDNAKNTVYLQMNSLKPEDTAVYYCAADYGFRYPLYDYWGQGTQVTVSS | low polyreactivity
37 | QVQLVESGGGLVQAGGSLRLICAASGLIFVRNVMGWYRQAPGKERELVAAINLSTGSTYYADSVKGRFTISRDNAKNTVYLQMNCLKPEDTAVYYCAAEYLYWDDLQDYEYWGQGTQVTVSS | low polyreactivity
38 | QVQLVESGGGLVQAGGSLRLICAASGLIFVSYAMGWSRQAPGKERELVAAITYGGDSTFYADSVKGRFTISRDNAKNTVYLQMNSLKPEDTAVYYCNADIWFIWHSFGWGYDYWGQGTQVTVSS | low polyreactivity
39 | QVQLVESGGGLVQAGGSLRLICAASGLTFDVNAMGWYRQAPGKERELVAAITADDGSTYYADSVKGRFTISRDNAKNTVYLQMNSLKPEDTAVYYCNADTRTQGPYSAPYYREMNYWGQGTQVTVSS | low polyreactivity
40 | QVQLVESGGGLVQAGGSLRLICAASGLTFDYYDMGWYRQAPGKERELVASITWRGSSTYYADSVKGRFTISRDNAKNTVYLQMISLKPEDTAVYYCAARYRWSEWRPYYYWGQGTQVTVSS | high polyreactivity
41 | QVQLVESGGGLVQAGGSLRLICAASGLTFYRYAMGWYRQGPGKERELVAGITRRGGSTYYADSVKGRFTISRDKPKNTVYLPMNSLKPEDTAVYYCNVDGISSSYPEMDYWGQGTQVTVSS | low polyreactivity
42 | QVQLVESGGGLVQAGGSLRLICAASGNIFTTYAMGWYRQAPGKERELVAAISRTGGRTSYADSVKGRFTISRDNAKNTVYLQMNSLKPEDTAVYYCAAVPTVRPSAPRARILSDYWGQGTQVTVSS | high polyreactivity
43 | QVQLVESGGGLVQAGGSLRLICAASGNIFVPSAMGWYRQAPGKERELVAAINGGGSTNYADSVKGRFTISRDNAKNTVYIQMISLKPEDTAVNYCAAVWYFLSLWYDYWGQGTQVTVSS | high polyreactivity
